# In EP2441771A1, “New 12alpha-hydroxysteroid dehydrogenase mutants, method for their manufacture and application thereof” (PharmaZell GmbH, priority 2010, dated 2012):
# Tests used:
# [1] = system: C[C@H](CCC(=O)O)[C@H]1CC[C@H]2[C@@H]3[C@H](O)C[C@@H]4C[C@H](O)CC[C@]4(C)[C@H]3C[C@H](O)[C@]12C; test: Enzyme kinetics (Michaelis-Menten) in microtiter plate photometer, cell lysate; type: biochemical, Clostridium sp. group P strain 48-50; settings: other: WT; constant 100 µM NADP^+, 6 µM to 10 mM Cholsäure (32 concentrations); nonlinear regression
# Text: (§1) Für jede der Mutanten sowie für das Wildtyp-Enzym wurden Kinetikmessungen im Mikrotiterplattenphotometer durchgeführt, indem die Umsatzraten der Enzyme sowohl mit gleichbleibenden Substratkonzentrationen bei variierten Kofaktorkonzentrationen als auch vice versa aufgezeichnet wurden. Zur Bestimmung der spezifischen Enzymaktivität wurden die Enzymkonzentrationen im Zelllysat densitometrisch bestimmt.
# (§2) Zur Ermittlung der Abhängigkeit der Substratumsatzgeschwindigkeit von der Substratkonzentration wurde eine Kofaktorkonzentration von 100 µM NADP^+ eingesetzt, während die Substratkonzentration über einen Bereich von 6 µM bis 10 mM Cholsäure mit 32 verschiedenen Konzentrationen variiert wurde.
# (§3) Zur Ermittlung der Abhängigkeit der Substratumsatzgeschwindigkeit von der Kofaktorkonzentration wurde eine Substratkonzentration von 10 mM Cholsäure bezogen auf das Reaktionsvolumen eingesetzt, während die Kofaktorkonzentration über einen Bereich von 2 µM bis 100 µM NADP^+ mit 16 verschiedenen Konzentrationen beim Wildtypprotein bzw. über einen Bereich von 2 µM bis 1000 µM NADP^+ mit 24 verschiedenen Konzentrationen bei den beiden Mutanten variiert wurde (jeweils bezogen auf den Raktionsansatz).
# (§4) Über das eingesetzte Volumen an Zelllysat lässt sich die volumenbezogene Enzymaktivität berechnen. Zusammen mit den bestimmten Enzymkonzentrationen lassen sich die spezifischen Enzymaktivitäten berechnen. […]
# [2] = system: NC(=O)c1ccc[n+]([C@@H]2O[C@H](COP(=O)([O-])OP(=O)(O)OC[C@H]3O[C@@H](n4cnc5c(N)ncnc54)[C@H](OP(=O)(O)O)[C@@H]3O)[C@@H](O)[C@H]2O)c1; test: as above; type: biochemical, Clostridium sp. group P strain 48-50; settings: other: WT; constant 10 mM Cholsäure, 2 µM to 100 µM NADP^+ (16 concentrations); nonlinear regression
# Text: as §1, §2, §3, §4
substance,measurement,setting,value
"12α-HSDH (WT), Wildtyp-Enzym, Clostridium sp. group P strain 48-50, SEQ ID NO:6 (Clostridium sp. ATCC 29733)",Km,[1],136 ± 12 µM
same,Km,[2],"21,4 ± 2,3 µM"
